Source: US20230115257A1 (published 2023)

What was measured:
[1] = target: SARS-CoV-2 (WIV02 isolate) prefusion stabilized spike trimer protein (UniProt P0DTC2 14-1213); test: ELISA
[2] = target: SARS-CoV-1 spike protein (SARS-CoV-1, UniProt P59594 14-1195); test: ELISA

Binder | IC50 [1] [nM] | IC50 [2] [nM]
3-E2-A (antibody, V domains shown) VH: EVQLQQSGPELVKPGASVKISCKASGYTFTDYYMNWVKQSHGKSLEWIGDINPNNGGTSYTQKFKGKATLTVDKSSSKAYMELRSLTSEDSAVYYCARRGDGHYGGFTYWGQGTLVTVSA VL: not shown | 18.4 | –
2-O12-A (antibody, V domains shown) VH: EVQLQQSGPELVKPGASVKISCKASGYTFTDYYMNWVKQSHGKSLEWIGDINSNNGGTTYDQKFKGKATLTVDRSSSTAYMELRSLTSEDSAVYYCARRGDGHFGGFTYWGQGTLVTVSA VL: not shown | 14.9 | –
8-A17-A (antibody, V domains shown) VH: QVQLKESGPGLVAPSQSLSITCTVSGFSLTSYAISWVRQPPGKGLEWLGVVWPGGGTNYNSALKSRLSINKDNSKSQVFLKMNSLQTDDTGRYYCARTGYHFDYWGQGTTLTVSS VL: QIVLTQSPAIMSASPGEKVTMTCSVSSSVSYMHWYQQKSGTSPKRWIYDTSKLASGVPARFSGSGSGTSYSLTISSMEAEDAATYYCQQWSSNPPMYTFGGGTKLEIK | – | 5.1
4-M3-A (antibody, V domains shown) VH: EVQLQQSGPELVKPGDSVKISCKASGYSFTGYFMNWVMQSHGKSLEWIGRINPNNGETFYNQKFKGKATLTVDKSSDTAHMELRSLTSEDSAVYYCARGGTGTGWGQGTTLTVSS VL: DILMTQSPSSMSVSLGDTVSITCHASQGISSNIGWLQQKPGKSFKGLIYYGTNLEDGVPSRFSGSGSGADYSLTISSLESEDLADYYCIQYAQFPYTFGGGTKLEIK | 7.36 | –
4-N22-A (antibody, V domains shown) VH: QVQLQQPGTELVKPGASVKLSCKASGYTFTNYWMYWVKQRPGQGLDWIGNINPSNGGTNYNEKFKSKATLTVDKSSSTAYMQLSSLTSEDSAVYYCARETGNYWGQGTTLTVSS VL: DILMTQSPSSMSVSLGDTVSISCHASQGISSNIGWLQQKPGKSFKGLIYHGTNLEDGVPSRFSGSGSGADYSLTISSLESEDFADYYCVQYAQFPYTFGGGTKLEIK | 4.93 | –
4-L4-A (antibody, V domains shown) VH: QAYLQQSGAELVRPGASVKMSCKASGYTFTSYTVHWVKQTPRQGLEWIGGIYPGNVDTSYNQNFKGKATLTVDKSSSTAYMQLSSLTSEDSAVYFCARDGYYAMDYWGQGTSVTVSS VL: not shown | 8.34 | –
1-B11-A (antibody, V domains shown) VH: QVQLQQSGPELVKPGASVKISCKASGYTFTDHYINWVKQRPGQGLEWIGWIFPGSGSTYYNEQFKGKATLTVDKSSNTAYMLLSSLTSEDSAVYFCARSGGLRLGFAYWGQGTLVTVSA VL: DIQMTQTTSSLSASLGDRVTISCRASQDISNYLNWYQQKPDGTVKLLIYYTSRLHSGVPSRFSGSGSGTDYSLTISNLEQEDISTYFCQQVNTLPYTFGGGTKLEIK | – | 20.9
9-F6-A (antibody, V domains shown) VH: EVQLQQSGPELVKPGASVKMSCKASGYTFTSYIMHWVKQKPGQGLEWIGYILPYNDGTKYNEKFKGKATLTSDKSSSTAYMELRSLTSEDSAVYYCARWGYSNFLDSWGQGTTLTVSS VL: DIQMTQTTSSLSASLGDRVTISCRASQDINNYLNWYQQKPDGTVKLLIYYTSRLHSGVPSRFSGSGSGTDYSLTIRNLEQEDIATYFCQQGNTLPPTFGGGTKLEIK | 16.7 | 5.55
6-O12-A (antibody, V domains shown) VH: QVQLQQPGTELVKPGASVKLSCKASGYTFTSYWMHWVKQRPGQGLEWIGNINPSNGGTNYNEKFRSKATLTVDKSSSTAYMQLSSLTSEDSAVYYCARLGWFLPLGSWGQGTTLTVSS VL: QIVLTQSPAIMSASLGEVITLTCSASSSVSYMHWYQQKSGTSPKLLIYSTSNLASGVPSRFSGSGSGTFYSLTISSVEAEDAADYYCHQWSGYMYTFGGGTKLEIK | 7.62 | 5.4
8-H5-A (antibody, V domains shown) VH: QVTLKESGPGILQSSQTLSLTCSLSGFSLSTSGMGVSWVRQPSGKGLEWLAHIYWDDDKRYTPSLKSRLTISTDSSRKQVFLKITSVDTADTATYYCARRDLHDYDGWFAYWGQGTLVTVSA VL: DIVMTQSQKFMSTAVGDRVSVTCKASQNVGTNVAWYQQKPGQSPKALIYSASFRYSGVPDRFSGSGSGTDFTLTISNVQSEDLAEYFCQQYNSYPLTFGSGTKLEIK | 12.8 | –
1-L10-A (antibody, V domains shown) VH: EVKLEESGGGLVQPGGSMKLSCVASGFTFNNYWMNWVRQSPEKGLEWVAQMRLKSDNYATHYAESVKGRFTISRDDSKSSVYLQMNNLRAEDTGIYYCIEGYWTYWGQGTLVTVSA VL: QIVLTQSPAIMSASLGERVTMTCTASSSVSSSYLHWYQQKPGSSPKLWIYSTSNLASGVPARFSGNGSGTSYSLTISSMEAEDAATYYCLQYHRSPPYTFGGGTKLEIK | 8.65 | 7.5
8-L17-A (antibody, V domains shown) VH: EVQLVESGGGLVQPKGSLKLSCAASGFTFNTYAMHWVRQAPGKGLEWVARIRSKSSNYARYYADSVKDRFTISRDDSQSMLYLQMNNLKTEDTAMYYCVRDHDYYGSSYWFAYWGQGTLVTVSA VL: DVVMTQTPLSLPVSLGDQASISCRSSQSLVHNNGNTYLHWYLQKPGQSPKLLIYKVSNRFSGVPDRFSGSGSGTDFTLKISRVEAEDLGVYFCSQSTHVPWTFGGGTKLEIK | 60.8 | –
2-P2-A (antibody, V domains shown) VH: EVQLQQSGAELVRPGSSVKMSCKTSGYTFTSYGINWVKQRPGQGLEWIGYIYIGNGYTEYNEKFKGKATLTSDTSSSTAYMQLSSLTSEDSAIYFCARGGVDYWGQGTTLTVSS VL: DVLMTQTPLSLPVSLGDQASISCRSSQSIVHSNGNTYLEWYLQKPGQSPKLLIYKVSNRFSGVPDRFSGSGSGTDFTLKISRVEAEDLGVYYCFQGSHVPYTFGGGTKLEIK | – | 17.9
8-H3-A (antibody, V domains shown) VH: EVQLVESGGGLVQPKGSLKLSCAASGFTFNTYAMHWVRQAPGKGLEWVARIRSKSSNYATYYADSVKDRFTISRDDSQSMLYLQMNNLKTEDTAMYYCVRDHDYYGSSYWFTYWGQGTLVTVSA VL: DVVMTQTPLSLPVSLGDQASISCRSSQSLVHDNGNTYLHWFLQKPGQSPKLLIYKVSNRFSGVPDRFSGSGSGTDFTLKISRVETEDLGVYFCSQSTHVPWTFGGGTKLEIK | 19.4 | –
2-G20-A (antibody, V domains shown) VH: EVQLQQSGPELVKPGASVKMSCKASGYTFPSYVLHWVKQKPGQGLEWIGYIYPYNDGTNYNEKFKGKATLTSDKSSSTAYMELSSLTSEDSAVYYCARGDYGDSAWFPYWGQGTLVTVSA VL: DIVLTQSPASLAVSLGQRATISCRASKSVSTSGYSYMHWYQQKPGQPPKLLIYLASNLKSGVPARFSGGGSGTDFTLNIHPVEEEDAATYYCQLSRELPWTFGGGTKLEIK | 18.3 | 6.65
2-H7-A (antibody, V domains shown) VH: QAYLQQSGAELVRPGASVKMSCKASGYTFTGYTMHWVKQTPRQGLEWIGAIYPENGDTSYNQKFKGKATLTVDKSSSTAYMQLSSLTSEDSAVYFCARDGYDVLYGMDYWGQGTSVTVSS VL: DIVLTQSPASLAVSLGQRATISCRASKSVSTSGYSYMHWYQQKPGQPPKLLIYLASNLESGVPARFSGSGSGTDFTLNIHPVEEEDAATYYCQHSRELPWTFGGGTKLDIK | 7.21 | –
